# Measurements: patent US20230250157A1 (CALIFORNIA INSTITUTE OF TECHNOLOGY, published 2023)
# Biological target: SARS-CoV-2 WA1 D614G spike on pseudovirus (SARS-CoV-2 WA1, UniProt P0DTC2 14-1252)
# Experiment: cell-based or functional assay
binder,measurement,value
"M8a-3 (antibody, V domains shown) VH: QVQLQQPGAELVLPGASVKLSCKASGYTFTNYWMHWVKQRPGHGLEWIGEIDPFDTYIKINQKFKGKSTLTVDTSSSTAYMQLSSLTSEDSAVYYCARPDSSGYPVYFDYWGQGTTLTVSS VL: DIVMTQSHKFMSTSVGDRVSITCKASQDVGTYIAWYQQKPGQSPKLLIYWASTRHTGVPDRFTGSGSGTNYTLTISSVQAEDLALYHCQQHYSTPYTFGGGTKLEIK",pseudovirus neutralization IC50,0.18 µg/mL
